In experiment [1] the target is T1, FLAG-tagged recombinant human Ang1 (Alexis Biochemicals) (human, UniProt Q15389 20-498, limits assumed).
T1 construct: Bought reagent; also called hAng1; FLAG-hAng1
T1 sequence (looked up): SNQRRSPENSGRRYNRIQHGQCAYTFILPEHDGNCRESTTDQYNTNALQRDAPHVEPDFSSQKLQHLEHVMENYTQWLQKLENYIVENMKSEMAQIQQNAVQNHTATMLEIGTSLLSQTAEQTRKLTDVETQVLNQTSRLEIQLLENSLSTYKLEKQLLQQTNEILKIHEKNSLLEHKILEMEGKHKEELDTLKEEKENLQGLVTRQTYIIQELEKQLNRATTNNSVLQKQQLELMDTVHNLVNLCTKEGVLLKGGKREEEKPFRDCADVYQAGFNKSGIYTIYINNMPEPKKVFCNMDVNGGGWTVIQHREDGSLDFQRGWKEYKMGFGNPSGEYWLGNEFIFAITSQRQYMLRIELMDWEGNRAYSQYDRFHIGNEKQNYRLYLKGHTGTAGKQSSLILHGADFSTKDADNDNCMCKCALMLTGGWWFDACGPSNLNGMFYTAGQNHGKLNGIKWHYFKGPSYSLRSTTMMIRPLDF
In words: competition ELISA, periplasmic extract, FLAG-hAng1 on hTie2/Fc. On the procedure:
(§1) In brief, human Tie2/Fc chimera (R&D Systems, Minneapolis, Minn., USA) is biotinylated using N-hydroxysulfosuccinimide ester of biotin (Thermo Fisher Scientific, Rockford, Ill., USA). […] To this mixture, the Acceptor beads and 0.3 nM biotinylated human Tie2/Fc chimeras are added and further incubated for 2 hours at room temperature. Finally, streptavidin conjugated Donor beads (Perkin Elmer, Waltham, Mass., US) are added and the mixture is incubated for an additional 2 hours at room temperature. Assay buffer is PBS+0.03% Tween-20+0.1% BSA. Fluorescence is measured using the Envision Multilabel Plate reader (Perkin Elmer, Waltham, Mass., USA) using an excitation wavelength of 680 nm and an emission wavelength of 520 nm. […] In brief, human or mouse Tie2/Fc chimera (R&D Systems, Minneapolis, Minn., USA) are immobilized at 2 μg/mL overnight at 4° C. in a 96-well MaxiSorp plate (Nunc, Wiesbaden, Germany). Wells are blocked with a 1% casein solution. […] This mixture is added to the Tie2/Fc coated well and incubated for 2 hours at room temperature. Residual binding of Ang is detected using HRP-conjugated anti-FLAG M2 antibody (Sigma, St Louis, Mo., USA).

Experiment [2] deals with T2, recombinant mouse Ang2-FLD (mouse, UniProt O35608 275-496, limits assumed).
T2 construct: domain: FLD
T2 sequence (looked up): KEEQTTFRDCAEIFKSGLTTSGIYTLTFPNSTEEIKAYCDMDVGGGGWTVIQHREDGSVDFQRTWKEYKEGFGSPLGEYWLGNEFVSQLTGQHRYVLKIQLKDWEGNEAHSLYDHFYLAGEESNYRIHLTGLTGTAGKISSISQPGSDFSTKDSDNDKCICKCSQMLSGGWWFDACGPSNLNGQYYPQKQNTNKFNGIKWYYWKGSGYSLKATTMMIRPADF
In words: SPR (Biacore T100), binder on CM5 chip, Ang2-FLD as analyte. On the procedure:
(§2) In brief, VHH and benchmark compounds are immobilized on a CM5 chip via amine coupling. […] Ang2-FLD species are allowed to associate for 2 min and to dissociate for 20 min at a flow rate of 45 μL/min. In between injections, the surfaces are regenerated with a 10 sec pulse of 25 mM NaOH and 60 sec stabilization period. Association/dissociation data are evaluated by fitting a 1:1 interaction model (Langmuir binding). The affinity constant KD is calculated from resulting association and dissociation rate constants kₐ and kd and are depicted in Table 8.

For experiment [3], the target named is T3, recombinant human Ang2-FLD (human, UniProt O15123 275-496, limits assumed).
T3 construct: domain: FLD; not used
T3 sequence (looked up): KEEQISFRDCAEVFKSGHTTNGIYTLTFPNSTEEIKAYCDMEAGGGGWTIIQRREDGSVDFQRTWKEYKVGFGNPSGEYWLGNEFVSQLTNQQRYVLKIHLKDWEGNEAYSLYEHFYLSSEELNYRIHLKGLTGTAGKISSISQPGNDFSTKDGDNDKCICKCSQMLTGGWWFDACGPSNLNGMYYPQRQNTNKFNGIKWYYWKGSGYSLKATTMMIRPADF
Described as above. Here is the method:
as §2

For experiment [4], the target named is T4, recombinant cynomolgus Ang2-FLD (cynomolgus).
T4 construct: domain: FLD; also called cyno Ang2-FLD
The description is as above. Here is the method:
as §2

Experiment [5] concerns the target T5, N-terminally FLAG-tagged mouse Ang2 (HEK293T conditioned medium) (mouse, UniProt O35608 19-496).
T5 construct: may be a nucleotide entry; also called mAng2; FLAG-mAng2
T5 sequence: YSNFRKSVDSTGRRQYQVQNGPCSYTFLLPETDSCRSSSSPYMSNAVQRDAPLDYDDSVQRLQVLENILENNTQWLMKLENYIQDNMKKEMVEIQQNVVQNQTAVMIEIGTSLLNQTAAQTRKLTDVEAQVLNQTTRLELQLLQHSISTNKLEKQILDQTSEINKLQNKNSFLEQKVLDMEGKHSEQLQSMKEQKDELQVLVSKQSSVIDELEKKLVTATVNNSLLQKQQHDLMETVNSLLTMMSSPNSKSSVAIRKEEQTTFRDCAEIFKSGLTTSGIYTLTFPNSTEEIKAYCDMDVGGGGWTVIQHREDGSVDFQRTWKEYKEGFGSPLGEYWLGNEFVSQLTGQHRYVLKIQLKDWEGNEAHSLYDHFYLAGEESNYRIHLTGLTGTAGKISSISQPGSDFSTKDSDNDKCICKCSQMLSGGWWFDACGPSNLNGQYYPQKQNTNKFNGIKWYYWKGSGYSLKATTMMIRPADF
In words: competition ELISA, FLAG-mAng2 on coated mTie2-Fc. Here is the method:
(§3) In brief, 2 μg/mL of recombinant mouse Tie2-Fc or cyno Tie2-Fc is coated overnight at 4° C. in a 96-well MaxiSorp plate (Nunc, Wiesbaden, Germany). Coated wells are blocked with a 1% casein solution.

Experiment [6] deals with T5, N-terminally FLAG-tagged mouse Ang2 …. In words: competition ELISA, periplasmic extract, FLAG-mAng2 on mTie2/Fc. Here is the method: as §1
For experiment [7], the target named is T6, N-terminally FLAG-tagged cynomolgus Ang2 (HEK293T conditioned medium) (cynomolgus, UniProt O15123 19-496 (human entry), limits assumed).
T6 construct: may be a nucleotide entry; also called cAng2; FLAG-cAng2
T6 chain: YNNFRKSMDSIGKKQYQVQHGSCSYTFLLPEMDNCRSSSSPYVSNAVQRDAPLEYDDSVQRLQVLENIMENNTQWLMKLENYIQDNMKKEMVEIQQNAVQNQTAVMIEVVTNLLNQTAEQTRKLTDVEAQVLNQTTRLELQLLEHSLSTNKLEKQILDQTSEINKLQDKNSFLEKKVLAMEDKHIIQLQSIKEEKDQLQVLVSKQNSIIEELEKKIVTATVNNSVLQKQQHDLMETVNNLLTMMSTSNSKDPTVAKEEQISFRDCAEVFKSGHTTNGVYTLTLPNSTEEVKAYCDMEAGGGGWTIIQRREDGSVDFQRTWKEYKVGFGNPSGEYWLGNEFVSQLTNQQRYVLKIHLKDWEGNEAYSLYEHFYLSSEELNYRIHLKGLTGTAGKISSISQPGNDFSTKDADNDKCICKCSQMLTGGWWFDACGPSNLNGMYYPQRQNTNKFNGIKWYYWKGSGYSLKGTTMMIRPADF
In words: competition ELISA, FLAG-cAng2 on coated cTie2-Fc. On the procedure: as §3

The target in experiment [8] is T1, FLAG-tagged recombinant human Ang1 …. Briefly: ratio of IC50 in hAng1/hTie2 ELISA to IC50 in hAng2/hTie2 ELISA. On the procedure:
In brief, 2 μg/mL of Tie2/Fc chimera (R&D Systems, Minneapolis, Minn., USA) is coated in a 96-well MaxiSorp plate (Nunc, Wiesbaden, Germany).
In brief, 2 μg/mL of recombinant human Tie2-Fc (R&D Systems, Minneapolis, Minn., USA) is coated overnight at 4° C. in a 96-well MaxiSorp plate (Nunc, Wiesbaden, Germany). Coated wells are blocked with a 1% casein solution.

B1: VHH 12A08 (VHH)
VHH: EVQLVESGRGLVQAGGSLRLSCAASGSIFSINAMLWYRQAPGKQRELVAAITSGGSTNYADSVKGRFTISRDNAKNTVYLQMNSLKPEDTAVYYCAADSDYSSDYYYWGQGTQVTVSS
notes: Tested as periplasmic extract; also called 012A08; not shown: C-terminal c-myc tag and His6 tag
B1: in experiment [1], the “% inh” value was 3%.

B2: VHH 28D10 (VHH)
VHH: EVQLVESGGGLVQAGGSLRLSCAASGFTLDDYAIGWFRQAPGKEREGVSCIRDSDGSTYYADSVKGRFTISSDNDKNTVYLQMNSLKPEDTAVYYCAAVPAGRLRFGEQWYPLYEYDAWGQGTQVTVSS
notes: also called 028D10; not shown: C-terminal c-myc tag and His6 tag
As to B2, the Kd in experiment [2] came out at 5.6 nM; in experiment [3] it was 1.3 nM; in experiment [4] it was 1.4 nM. Besides, the figures for the koff in experiment [2], in experiment [3] and in experiment [4] were 0.011 s⁻¹, 0.0062 s⁻¹ and 0.025 s⁻¹, respectively. Further, the association rate constant (kon) came to 1.9e+06 M⁻¹ s⁻¹ in experiment [2], 4.9e+06 M⁻¹ s⁻¹ in experiment [3] and 1.8e+07 M⁻¹ s⁻¹ in experiment [4]. Moreover, the values for the half-maximal inhibitory concentration (IC50) in experiment [5] and in experiment [7] were 6.1 nM and 2 nM, respectively. Besides, the “% inh” value in experiment [6] is 93%; in experiment [1], 4%. For the same molecule, in experiment [8], the hAng1/hAng2 ratio was above 3080.

(Values after patent publication US20230203146A1 (Boehringer Ingelheim, published 2023).)
